According to patent publication CN111484554A (YINGWEIFUSAI BIOTECHNOLOGY CO LTD, dated 2020):
Numbering of substitutions follows the chain as printed.

B1: 人源化11B6-hu-a抗体 (antibody, human IgG4 S228P, kappa, V domains shown)
VH: QVQLVQSGAEVKKPGSSVKVSCKASGYTFTSYWINWVRQAPGQGLEWIGNIYPSDSYTNYNQKFQGRVTITADESTSTAYMELSSLRSEDTAVYYCTRESQTGTGYYAMDYWGQGTLVTVSS
VL: DIQMTQSPSSLSASVGDRVTITCQASQDISNYLNWYQQKPGKAPKLLIYYTSRLHSGVPSRFSGSGSGTDFTFTISSLQPEDIATYYCQQGNTLPWTFGGGTKLEIKR
B2: 人源化11B6-hu-b抗体 (antibody, human IgG4 S228P, kappa, V domains shown)
VH: B1 VH with S16A, I70M, A72R, E74T, A79V
VL: B1 VL with Q24R, F73L, I83F, G100Q, L104V
B3: 11B6嵌合抗体 (antibody, human IgG4 S228P, kappa, V domains shown)
VH: QVQLQQPGAELVRPGASVKLSCKASGYTFTSYWINWVKQRPGQGLEWIGNIYPSDSYTNYNQKFKDKATLTVDKSSSTAYMQLSSPTSEDSAVYYCTRESQTGTGYYAMDYWGQGTSVTVSS
VL: DIQMTQTTSSLSASLGDRVTISCRASQDISNYLNWYQQKPDGTVKLLIYYTSRLHSGVPSRFSGSGSGTDYSLTISNLEQEDIATYFCQQGNTLPWTFGGGTKLEIKR
notes: Mouse 11B6 variable regions on a human IgG4 constant region and a human kappa constant region; also called 11B6 chimeric antibody

target: T1, 4-1BB(24-180)-His重组蛋白 (4-1BB胞外段24-180位氨基酸, C端6个His) (UniProt Q07011 24-180); assay: SPR, antibody captured on Protein A chip, 4-1BB protein 6.25-400 nM as analyte
T1 construct: range 24-180; Human is implied by the human therapeutic context; The monomer was used for immunisation and the ELISA screen; also called 4-1BB-His蛋白; 4-1BB蛋白

Kd | Binder
5.84 nM | B1
9 nM | B2
3.75 nM | B3
